Assay results as given in US11406618B2, “Polymer-des-ethyl sunitinib conjugates” (Nektar Therapeutics, priority 2010, dated 2022).

Assay: Buffer hydrolysis in phosphate buffer to monitor the release of des-ethyl sunitinib
Type: physicochemical
Conditions: 100 mM phosphate, 37° C.
Procedure: In a 10 mL round bottom flask was added (Z)—(N-(2-aminoethyl)-9-(hydroxymethyl)-9H-fluorene-2-carboxamide hydrochloride) ethyl(2-(5-((5-fluoro-2-oxoindolin-3-ylidene)methyl)-2,4-dimethyl-1H-pyrrole-3-carboxamido)ethyl)carbamate dihydrochloride (Compound 2a) (4.83 mg, 6.42 μmol). The solids were dissolved in anhydrous tetrahydrofuran (0.4 mL) and 1,4 dioxane (0.2 mL). mPEG-SPA 20K (100.4 mg, 5.02 μmol) was added. Anhydrous acetonitrile (0.2 mL) was added to dissolve the PEG. After the PEG dissolved, triethylamine (5.2 μL, 0.037 mmol) was added. At 1 hour, the reaction solvent was evaporated at reduced pressure to a dry solid. The product was redissolved in anhydrous acetonitrile (0.5 mL) and precipitated by slow addition of anhydrous IPA (8 mL total). The product was washed with anhydrous IPA (50 mL) and diethyl ether. Residual solvent was evaporated at reduced pressure. Yield was 75 mg yellow powder (75% yield). HPLC analysis was on C18 applying an acetonitrile gradient with 0.1% TFA; retention times were desethyl sunitinib (compound 1) 2.5 minutes and product at 10.7 minutes. Buffer hydrolysis was performed to monitor the release of des-ethyl sunitinib (100 mM phosphate, 37° C.): 36 days at pH 7.5, 3.6 days at pH 8.5.
In a 10 mL round bottom flask was added Compound 2b (9.6 mg, 0.013 mmol). The solids were suspended in anhydrous acetonitrile (0.37 mL) and 1,4 dioxane (0.37 mL). mPEG-SPA 20K (181.3 mg, 9.07 μmol) was added. After the PEG dissolved, triethylamine (9.24 μL, 0.066 mmol) was added. At one hour, the product was precipitated by slow addition of anhydrous IPA (10 mL). The solid was washed with anhydrous IPA (25-30 mL) and then washed with diethyl ether. Residual solvent was evaporated at reduced pressure. Yield was ˜120 mg yellow powder. The product was transferred to a 50 mL round bottom flask. More Compound 2b (6.9 mg, 9.18 μmol) was added. Anhydrous acetonitrile (0.25 mL) and anhydrous 1,4 dioxane (0.25 mL) and anhydrous pyridine (2.2 μL, 0.027 mmol) were added. The reagents never fully dissolved, therefore triethylamine (6 μL, 0.043 mmol) was added. The solution was a clear orange color. After 45 minutes, the product was precipitated by slow addition of anhydrous IPA (˜10 mL). The solid was washed with anhydrous IPA (˜25-30 mL) and then washed with diethyl ether. Residual solvent was evaporated at reduced pressure. Yield was ˜68 mg (57%) yellow powder. HPLC analysis was on C18 applying an acetonitrile gradient with 0.1% TFA; retention times were desethyl sunitinib (compound 1) 2.5 min and product at 10.7 min. Buffer hydrolysis was performed to monitor the release of des-ethyl sunitinib (100 mM phosphate, 37° C.): 22 days at pH 7.5, 1.4 days at pH 8.5.
Experiments were carried out to measure drug release from the polymer conjugates. A typical plot of the data showing the decay of the polymer conjugate (FIG. 1) and the build-up of drug with time (FIG. 2) are included.
In a 10 mL round bottom flask was Compound 2c (7.4 mg, 7.69 μmol) was suspended in anhydrous dioxane (0.5 mL) and anhydrous acetonitrile (0.5 mL). mPEG-SPA 20K (100.0 mg, 5.0 μmol) was added. After the PEG dissolved, triethylamine (7.2 μL, 0.052 mmol) was added. At thirty minutes, anhydrous acetonitrile (0.5 mL) and anhydrous methanol (0.3 mL) were added. At two hours total reaction time, the product was precipitated by slow addition of anhydrous IPA containing 0.25% phosphoric acid. The product was washed with anhydrous IPA and then washed with diethyl ether. Residual solvent was evaporated at reduced pressure. Yield: 58 mg (58%) yellow powder. HPLC analysis employed a C18 column using an acetonitrile gradient with 0.1% TFA; retention times were des-ethyl sunitinib 2.5 min and product 10.7 minutes with 41% purity at 320 nm. Buffer hydrolysis was done to monitor the release of desethyl sunitinib (100 mM phosphate, 37° C.): 11 d at pH 7.5, 1.7 d at pH 8.5.

Substance	Buffer hydrolysis, release of desethyl sunitinib at pH 7.5 (pH 7.5)	Buffer hydrolysis, release of desethyl sunitinib at pH 8.5 (pH 8.5)	Buffer hydrolysis, release of des-ethyl sunitinib at pH 7.5 (pH 7.5)	Buffer hydrolysis, release of des-ethyl sunitinib at pH 8.5 (pH 8.5)
(Z)-(9-(hydroxymethyl)-N2-(2-(2-(2-methoxyethoxy)ethoxy)ethyl)-N7-(2-β-(2-(mPEG 20,000))propanamido)ethyl)-9H-fluorene-2,7-dicarboxamide) ethyl(2-(5-((5-fluoro-2-oxoindolin-3-ylidene)methyl)-2,4-dimethyl-1H-pyrrole-3-carboxamido)ethyl)carbamate [Compound 3c]	11 d	1.7 d	–	–
(Z)-(9-(hydroxymethyl)-N-(2-β-(mPEG 20,000)propanamido)ethyl)-9H-fluorene-2-carboxamide) ethyl(2-(5-((5-fluoro-2-oxoindolin-3-ylidene)methyl)-2,4-dimethyl-1H-pyrrole-3-carboxamido)ethyl)carbamate [Compound 3a]	–	–	36 days	3.6 days
(Z)-(9-(hydroxymethyl)-N-(2-β-(mPEG 20,000)propanamido)ethyl)-9H-fluorene-4-carboxamide) ethyl(2-(5-((5-fluoro-2-oxoindolin-3-ylidene)methyl)-2,4-dimethyl-1H-pyrrole-3-carboxamido)ethyl)carbamate [Compound 3b]	–	–	22 days	1.4 days
